What was measured:
[1] = target: T1, biotinylated refolded A*01:01/b2m with … (alanine at position 9) (human, UniProt P61769 21-119); assay: BLI (Octet), biotinylated pHLA on streptavidin sensor
Procedure: (§1) All the assay conditions were prepared in a volume of 200 μL. The pHLA complex biotinylated at the C-terminal AviTag was used to ensure uniform directionality of the protein. […] Using the ForteBio Data Analysis suite, the data was normalized to the association curves followed by background normalization. Curve fitting using global fitting of the sensor data with the Octet™ software using 1:1 kinetic model with errors within 10%, X2below 3, and R2above 0.9 to determine the association and dissociation constants.

[2] = target: T2, biotinylated refolded G2-pHLA (A*01:01/b2m/…) (human, biotinylated at the C-terminal AviTag); assay: BLI (Octet), biotinylated pHLA on streptavidin sensor, antibody as analyte;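 further: pHLA biotinylated through a C-terminal AviTag for uniform orientation, sensor data background-normalized, rate constants from global 1:1 kinetic fitting in Octet software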
T2 construct: Soluble complex caught on streptavidin sensors or MSD plates; also called G2-peptide A*01:01/b2m complex; WT
Procedure: as §1

[3] = target: biotinylated refolded A*01:01/b2m with … (Ala 1) (human, UniProt P61769 21-119); assay: as above
Procedure: as §1

[4] = target: biotinylated refolded A*01:01/b2m with … (Ala 2) (human, UniProt P61769 21-119); assay: as above
Procedure: as §1

[5] = target: biotinylated refolded A*01:01/b2m with […] (Ala 3) (human, UniProt P61769 21-119, biotinylated at the C-terminal AviTag); assay: as above
Procedure: as §1

[6] = target: biotinylated refolded A*01:01/b2m with … (Ala 4) (human, UniProt P61769 21-119); assay: as above
Procedure: as §1

[7] = target: biotinylated refolded A*01:01/b2m with … (Ala 5) (human, UniProt P61769 21-119); assay: as above
Procedure: as §1

[8] = target: biotinylated refolded A*01:01/b2m with … (Ala 6) (human, UniProt P61769 21-119); assay: as above
Procedure: as §1

[9] = target: biotinylated refolded A*01:01/b2m with … (alanine at position 8) (human, UniProt P61769 21-119); assay: as above
Procedure: as §1

[10] = target: T1, biotinylated refolded A*01:01/b2m with …; assay: as above
Procedure: as §1

B1: monovalent Format 3-E07-hOKT3a antibody (bispecific antibody, V domains shown)
VH 1: QVQLVQSGAEVKKPGASVKVSCKASGFTFTNYLIHWVRQAPGQGLEWMGWINPNSGGTNYAQRLQGRVTMTRDTSTSTVYMELSSLRSEDTAVYYCARDYGAGNDYWGQGTLVTVSS
VL 1: DIQMTQSPSSLSASVGDRVTITCRASQEIRRWLAWYQQKPGKAPKLLIYAASNLQSGVPSRFSGSGSGTDFTLTISSLQPEDFATYYCQQSYSTPYTFGQGTKLEIK
VH 2: QVQLVQSGAEVKKPGASVKVSCKASGYTFTRYTMHWVRQAPGQGLEWMGYINPSRGYTNYNQKFKDRVTLTTDKSSSTAYMELSSLRSEDTAVYYCARYYDDHYSLDYWGQGTLVTVSS
VL 2: DIQMTQSPSSLSASVGDRVTITCSASSSVSYMNWYQQKPGKAPKRLIYDTSKLASGVPSRFSGSGSGTDFTLTISSLQPEDFATYYCQQWSSNPFTFGQGTKLEIK
binding result [1]: no binding (tested: typically 500-0 nM antibody)
Kd [2]: 1.2 nM
Max Response (nm) [2]: 0.24 nm
Fold change in affinity (against WT) [3]: 2.5 fold
Kd [3]: 3 nM
Max Response (nm) [3]: 0.26 nm
Kd [4]: 1.5 nM
Max Response (nm) [4]: 0.24 nm
Fold change in Response (against WT) [5]: 1.6 fold
Fold change in affinity (against WT) [5]: 14.2 fold
Kd [5]: 17 nM
Max Response (nm) [5]: 0.15 nm
Fold change in affinity (against WT) [6]: 7.3 fold
Kd [6]: 8.7 nM
Max Response (nm) [6]: 0.24 nm
Fold change in affinity (against WT) [7]: 13.3 fold
Kd [7]: 16 nM
Max Response (nm) [7]: 0.21 nm
Fold change in Response (against WT) [8]: 2.7 fold
Fold change in affinity (against WT) [8]: 13.3 fold
Kd [8]: 16 nM
Max Response (nm) [8]: 0.09 nm
Fold change in affinity (against WT) [9]: 6.7 fold
Kd [9]: 8 nM
Max Response (nm) [9]: 0.24 nm
Max Response (nm) [10]: 0 nm

— patent publication US20260062487A1 (GRITSTONE BIO, published 2026)
